This data set has as its system Bxb1 integrase (serine recombinase) (Mycobacterium phage Bxb1?). Put plainly: cell_activity.

With “Bxb1 attB site on circularised mNeonGreen cargo”, for the setting “attB on cargo recombined with genomic attP in hiPSCs, 0.01% without cargo and Bxb1 plasmids”, the activity (% mNeonGreen-positive cells) came to 11.3.

Take “Bxb1 attP site (58 nt, integrated at ACTR10 via ssODN)”: the activity (% mNeonGreen-positive cells) (attP x attB recombination in hiPSCs, all components delivered with Cas9 RNP, 0.38% without attP ssODN template) was 11.3.

For the origin of these results see patent publication US20250002943.
